Molecular target: the molecule itself
Experiment: SEC; HiLoad Superdex 200 PG, 20 mM Tris-HCl, 100 mM NaCl, pH 7.4; apo protein after Strep-tag purification; elution profile overlaid with that of a protein of known size (25.0 kDa)

B1: StrepMSMEG_0243 (truncated MSMEG_0243 lacking the predicted signal peptide) (natural protein, Mycobacterium smegmatis mc2155, UniProt A0QP20 26-116, looked up)
chain: DPAPNPPNCTAADLAGVASGVSAGTSAYLFTHPQVNDFFTSLEGLPREEVKPKVADYLAANPQVKDELTAVRQPLVDLKNRCGTAPAPELP
notes: truncated version lacking the predicted signal peptide (predicted cleavage site between pos. 25 and 26: ALA-DP); The methods name the vector once as pET-22(b)+ and once as pET-28(b)+; vector-derived residues may be present; also called apo-MSMEG_0243; source: E. coli Bl21 Rosetta, purified (Streptavidin beads, size exclusion chromatography)
For B1, the “stoichiometry N” value was 2.

— publication PMC7516205, “The Two-Component Locus MSMEG_0244/0246 Together With MSMEG_0243 Affects Biofilm Assembly in M. smegmatis Correlating With Changes in Phosphatidylinositol Mannosides Acylation” (Frontiers in Microbiology, 2020)
